Target: T1, angiogenin (Homo sapiens, UniProt P03950)
T1 construct: purchased R&D systems, Inc., Minneapolis
Assay: Affinity-selection (biopanning) of Ph.D.-12 phage library against angiogenin, DNA sequencing of plaques
Assay type: binding
Conditions: after fourth round of affinity-selection
Experimental: Phage affinity-selection (biopanning) procedure was performed by following the standard protocol with minor modifications (FIG. 1). The target protein angiogenin (R&D systems, Inc., Minneapolis) used for biopanning was diluted to 20, 4, 0.8 and 0.16 μg/mL in 0.1 M NaHCO3 (pH=8.6) in the first, second, third and fourth round, respectively. During each round, 400 μL of angiogenin with designated concentration, was added into a well (diameter is 15.6 mm) of the 24 well cell culture plate (Cat. #: 142475, Thermo Fisher Scientific), and incubated overnight at 4° C. with the lid on in a humidified container. Then the supernatant was pipetted out and the plate was firmly slapped face down on a paper towel to remove the residual solution. Afterwards, 500 μL of blocking buffer (5 mg/mL BSA, 0.1M NaHCO3) was added into the well and incubated for 3 h at 4° C., after which the supernatant was discarded. […]
A small amount (5 μL) of the above eluate mixture was diluted 10-fold with PBS buffer. […] The titer was calculated by this equation: titer=1000×N×M pfu/mL, where N and M are the dilution factor and the number of the blue phage plaques on a plate, respectively. […]

T1 sequence (P03950 25-147): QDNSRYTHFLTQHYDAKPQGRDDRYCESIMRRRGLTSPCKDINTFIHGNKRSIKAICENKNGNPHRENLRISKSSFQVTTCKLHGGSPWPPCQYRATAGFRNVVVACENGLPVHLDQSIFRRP

Row | Sequence | repeats of the peptide sequence among 57 sequenced plaques
1 | FHHPSIHDRHRH (PEPTIDE (1)..(12) Completely synthesized in the lab - Ph.D.-12 Phage Display Peptide Library) [FH peptide] | 4 repeats
2 | WPYWNHHSHNNV (PEPTIDE (1)..(12) Completely synthesized in the lab - Ph.D.-12 Phage Display Peptide Library) [WV peptide] | 11 repeats
